Laboratory results reported in the supplement of paper PMC10567573.

B1: IKZF1 (parent)
chain: YHSQDRYEFSSHITRGEHRFHMS
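Note: lentivirally expressed fusions sorted by FACS into six bins by GFP to DsRed ratio, PSI derived from sequencing read proportions per bin multiplied by bin number.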

Variants of: B1
Assay: protein stability index of a GFP-peptide fusion (GPS, HEK-293T) (PSI 1-6); higher = more stable
Details: c terminus: native
For YHAQDRYEFSSHITRGEHRFHMS [S3A], the protein stability index was 2.66.
With YHNQDRYEFSSHITRGEHRFHMS [S3N] the protein stability index was 1.61.
YHQQDRYEFSSHITRGEHRFHMS [S3Q] showed a protein stability index of 2.54.
YHCQDRYEFSSHITRGEHRFHMS [S3C] showed a protein stability index of 1.59.
For YHGQDRYEFSSHITRGEHRFHMS [S3G], the protein stability index was 2.
YHRQDRYEFSSHITRGEHRFHMS [S3R] gave a protein stability index of 2.47.
YHEQDRYEFSSHITRGEHRFHMS [S3E] gave a protein stability index of 2.56.
In the case of YHSQDRYEFWSHITRGEHRFHMS [S10W], the protein stability index is reported as 3.17.
YHSQDRYEFLSHITRGEHRFHMS [S10L] gave a protein stability index of 1.66.
Variant YHSQDRYEFASHITRGEHRFHMS [S10A] has a protein stability index of 1.4.
YHSQDRYEFGSHITRGEHRFHMS [S10G] gave a protein stability index of 1.92.
In the case of YHSQDRYEFSSHITRGEHQFHMS [R19Q], the protein stability index is reported as 2.28.
Variant YHSQDRYEFSSHITRGEHSFHMS [R19S] has a protein stability index of 1.99.
For YHSQDRYEFSSHITRGEHAFHMS [R19A], the protein stability index was 2.47.
Variant YHSQDRYEFSSHITRGEHGFHMS [R19G] has a protein stability index of 1.89.
In the case of YHSQDRYEFSSHITRGEHVFHMS [R19V], the protein stability index is reported as 2.16.
YHSQDRYEFSSHITRGEHYFHMS [R19Y] gave a protein stability index of 2.16.
YHSQDRYEFSSHITRGEHFFHMS [R19F] gave a protein stability index of 2.39.
For YHSQRRYEFSSHITRGEHRFHMS [D5R], the protein stability index was 1.61.
With YHSQTRYEFSSHITRGEHRFHMS [D5T] the protein stability index was 2.18.
In the case of YHSQDRYEFSSHITRPEHRFHMS [G16P], the protein stability index is reported as 2.01.
Work on YHSQDRYEFSSHITRTEHRFHMS [G16T] yielded a protein stability index of 2.4.
For YHSQDRYEFSSHITRMEHRFHMS [G16M], the protein stability index was 2.85.
YHSQDRYEFSSHITRCEHRFHMS [G16C] showed a protein stability index of 2.74.
YHSQDRYEFSSHITRFEHRFHMS [G16F] gave a protein stability index of 1.9.
Variant YHSQDRYEFSSHITRKEHRFHMS [G16K] has a protein stability index of 2.27.
YHSQDRYEFSSHITRDEHRFHMS [G16D] showed a protein stability index of 2.52.
Work on YHSQDRYEFSSHITRGEHRAHMS [F20A] yielded a protein stability index of 2.15.
With YHSQDRYEFSSHITRGEHRDHMS [F20D] the protein stability index was 1.76.
With YHSQDRYEFSSHITRGEHRGHMS [F20G] the protein stability index was 1.67.
YHSQDRYEFSSHITRGEHRHHMS [F20H] showed a protein stability index of 1.93.
YHSQDRYEFSSHITRGEHRRHMS [F20R] showed a protein stability index of 2.36.
YHSQDRYEFSSHITSGEHRFHMS [R15S] gave a protein stability index of 1.55.
YHSQDRYEFSEHITRGEHRFHMS [S11E] showed a protein stability index of 2.15.
YHSQDRYEFSWHITRGEHRFHMS [S11W] showed a protein stability index of 2.27.
For YHSQDRYEFSRHITRGEHRFHMS [S11R], the protein stability index was 2.33.
Variant YHSQDRYEFSVHITRGEHRFHMS [S11V] has a protein stability index of 1.6.
For YHSQDRYEFSSHITRGEDRFHMS [H18D], the protein stability index was 1.12.
In the case of YHSQDRYEFSSHITRGEQRFHMS [H18Q], the protein stability index is reported as 1.72.
In the case of YHSQDRYEFSSHITRGEERFHMS [H18E], the protein stability index is reported as 1.97.
YHSQDRYEFSSHITRGERRFHMS [H18R] gave a protein stability index of 1.82.
For YHSQDRYEFSSHITRGENRFHMS [H18N], the protein stability index was 1.45.
Variant YHSQDFYEFSSHITRGEHRFHMS [R6F] has a protein stability index of 3.44.
Work on YHSQDLYEFSSHITRGEHRFHMS [R6L] yielded a protein stability index of 2.98.
YHSQDNYEFSSHITRGEHRFHMS [R6N] showed a protein stability index of 2.44.
With YHSQDYYEFSSHITRGEHRFHMS [R6Y] the protein stability index was 2.24.
YHSQDKYEFSSHITRGEHRFHMS [R6K] showed a protein stability index of 2.64.
Variant YHSQDRYEFSSHITRGEHRFEMS [H21E] has a protein stability index of 1.44.
With YHSQDRYEFSSHITRGEHRFFMS [H21F] the protein stability index was 1.98.
YHSQDRYEFSSHITRGEHRFVMS [H21V] showed a protein stability index of 2.25.
Variant YHSQDRYEFSSHIERGEHRFHMS [T14E] has a protein stability index of 1.68.
YHSQDRYEFSSHIQRGEHRFHMS [T14Q] showed a protein stability index of 1.34.
For YHSQDRYEFSSHIRRGEHRFHMS [T14R], the protein stability index was 2.07.
YHSQDRYEFSSHIMRGEHRFHMS [T14M] gave a protein stability index of 1.84.
With YHSQDRYEFSSHIARGEHRFHMS [T14A] the protein stability index was 2.38.
Variant YHSNDRYEFSSHITRGEHRFHMS [Q4N] has a protein stability index of 1.89.
Variant YHSEDRYEFSSHITRGEHRFHMS [Q4E] has a protein stability index of 3.35.
For YHSQDRYEFSSHITRGEHRFHMP [S23P], the protein stability index was 2.
With YHSQDRYEFSSHITRGEHRFHMY [S23Y] the protein stability index was 2.42.
With YHSQDRYEFSSHITRGEHRFHMQ [S23Q] the protein stability index was 2.68.
For YHSQDRYEFSSHITRGEHRFHMA [S23A], the protein stability index was 1.8.
YHSQDRYEFSSHITRGEHRFHME [S23E] gave a protein stability index of 1.5.
YHSQDRFEFSSHITRGEHRFHMS [Y7F] showed a protein stability index of 2.78.
Variant YHSQDRCEFSSHITRGEHRFHMS [Y7C] has a protein stability index of 1.91.
YHSQDRKEFSSHITRGEHRFHMS [Y7K] showed a protein stability index of 1.51.
Work on YHSQDRPEFSSHITRGEHRFHMS [Y7P] yielded a protein stability index of 1.78.
YHSQDRVEFSSHITRGEHRFHMS [Y7V] gave a protein stability index of 2.
Variant YHSQDRTEFSSHITRGEHRFHMS [Y7T] has a protein stability index of 1.85.
With YHSQDRYEFSSHITRGEHRFHHS [M22H] the protein stability index was 1.66.
YHSQDRYEFSSHITRGEHRFHKS [M22K] showed a protein stability index of 1.46.
YHSQDRYEFSSHITRGEHRFHSS [M22S] showed a protein stability index of 2.03.
With YHSQDRYEFSSHITRGEHRFHLS [M22L] the protein stability index was 1.4.
In the case of YHSQDRYEFSSHITRGEHRFHDS [M22D], the protein stability index is reported as 1.94.
Work on YHSQDRYPFSSHITRGEHRFHMS [E8P] yielded a protein stability index of 3.38.
In the case of YHSQDRYGFSSHITRGEHRFHMS [E8G], the protein stability index is reported as 1.72.
For YHSQDRYNFSSHITRGEHRFHMS [E8N], the protein stability index was 3.99.
With YHSQDRYDFSSHITRGEHRFHMS [E8D] the protein stability index was 2.45.
Variant YHSQDRYWFSSHITRGEHRFHMS [E8W] has a protein stability index of 2.44.
Work on VHSQDRYEFSSHITRGEHRFHMS [Y1V] yielded a protein stability index of 3.57.
In the case of CHSQDRYEFSSHITRGEHRFHMS [Y1C], the protein stability index is reported as 3.03.
For RHSQDRYEFSSHITRGEHRFHMS [Y1R], the protein stability index was 4.05.
KHSQDRYEFSSHITRGEHRFHMS [Y1K] showed a protein stability index of 2.12.
With AHSQDRYEFSSHITRGEHRFHMS [Y1A] the protein stability index was 3.73.
With EHSQDRYEFSSHITRGEHRFHMS [Y1E] the protein stability index was 4.
For YHSQDRYEFSSHRTRGEHRFHMS [I13R], the protein stability index was 1.49.
In the case of YHSQDRYEFSSHWTRGEHRFHMS [I13W], the protein stability index is reported as 1.71.
With YHSQDRYEFSSHTTRGEHRFHMS [I13T] the protein stability index was 1.97.
Variant YHSQDRYEFSSHCTRGEHRFHMS [I13C] has a protein stability index of 2.08.
Variant YHSQDRYEFSSHNTRGEHRFHMS [I13N] has a protein stability index of 2.05.
For YHSQDRYEFSSHITRGLHRFHMS [E17L], the protein stability index was 2.11.
YHSQDRYEFSSHITRGHHRFHMS [E17H] gave a protein stability index of 1.99.
In the case of YHSQDRYEFSSHITRGFHRFHMS [E17F], the protein stability index is reported as 1.62.
Variant YHSQDRYEFSSHITRGYHRFHMS [E17Y] has a protein stability index of 1.7.
With YHSQDRYEFSSHITRGSHRFHMS [E17S] the protein stability index was 1.64.
Work on YHSQDRYEASSHITRGEHRFHMS [F9A] yielded a protein stability index of 2.02.
YHSQDRYEGSSHITRGEHRFHMS [F9G] gave a protein stability index of 1.97.
Variant YHSQDRYEFSSWITRGEHRFHMS [H12W] has a protein stability index of 2.85.
